According to PMC6416899:

Target: PtoMYB221 fused to Cub (split-ubiquitin bait) (Populus tomentosa)

## full-length PtoUBC34 fused to Nub (split-ubiquitin prey) (from UniProt A0A482P071 1-235) (enzyme)
  decrease in LUC activity by 2.56 μg PtoMYB221 effector plasmid against the control without PtoMYB221, with 600 to 1200 ng PtoUBC34 (35.16% with 1200 ng; 72.66% when no exogenous PtoUBC34 was added): 54.8%
